What was measured:
BxPC-3 = test: FACS analysis of cell surface binding, BARB4 and commercial TAF 15 antibody; set-up: species or system human; conditions: BARB4 100 ug/ml, TAF 15 antibody 25 μg/ml
Method: (§1) To further validate BARB4 target protein TAF 15, BARB4 and a commercial TAF 15 antibody (anti-human TAFII p68, Santa Cruz Biotechnology, sc-81121) were analyzed for binding to BxPC-3, HEK 293, A549 and HeLa cell lines. In brief, cells were trypsinized with cell dissociation solution (Sigma C5789), resuspended in complete medium (RPMI 1640, PAA, E15-039, 10% Fetal bovine serum, PAA, A15-151 and 1% Glutamine, PAA, M11-004) and set on 2×10^5/ml. After 30 minutes on ice, cells were dispersed at 1 ml per FACS-tube and washed once with ice-cold PBS by centrifugation with 500 g and 4° C. Staining was done with BARB4 (100 ug/ml) or the commercial TAF 15 (25 μg/ml) IgG antibodies, control IgGs (IgG lambda, or mouse IgG), or without antibody in 200 μl PBS. Cells were incubated with 25 μg/ml antibody in 100 μl for 30 minutes on ice, then washed with ice cold PBS and secondary antibody (anti mouse IgG-FITC, dianova 115-095-008) was applied at a dilution of 1:50 in 200 μl per tube. After another 30 minutes of incubation in the dark, cells were washed twice with PBS and analyzed by FACS. […] BARB4 target protein TAF 15 validation was then analyzed by immunoprecipitation of MKNcell extracts with BARB4 and subsequent Western blotting with either BARB4 or anti-TAF 15 antibodies (Biomol, A300-308A; or Aviva, ARP30111_T100).

A549 = test: as above; set-up: species or system human; conditions: BARB4 100 ug/ml, TAF 15 antibody 25 μg/ml
Method: as §1

[1] = test system: pancreas cancer cells (BXPC-3); test: FACS analysis of tumor cell binding; set-up: species or system human; conditions: 20 min on ice
Method: (§2) To analyze tumor cell binding, pancreas cancer cells (BXPC-3), stomach cancer cells (23132/87), lung carcinoma cells (A549) and malignant melanoma cells (HTB-69 and CRL-1424) were grown to subconfluency in complete medium, detached with Trypsin/EDTA and incubated on ice for 1 h for recreation. Tumor cells were subsequently incubated on ice with BARB4 antibody (diluted in PBS containing 0.01% sodium azide), or human isotype-matched control antibody (Chrompure human IgG, Dianova, Hamburg, Germany) for 20 min on ice. Following incubation, cells were incubated with a FITC-labeled rabbit anti-human IgG antibody (1:50, Dako, Germany) for 20 min on ice, and cells were analyzed by flow cytometry (FACScan; Becton Dickinson, USA).

[2] = test system: lung carcinoma cells (A549); test: FACS analysis of tumor cell binding; set-up: species or system human; conditions: 20 min on ice
Method: as §2

[3] = test system: membrane preparations of tumor cell line BXPC-3; test: Western blot on membrane preparations; assay type: binding, human; conditions: BXPC-3 membrane preparation; FIG. 6A
Method: For BARB4 target assays the established, human pancreatic adenocarcinoma cell line BXPC-3 was used. The adherent cells were grown to a confluence of about 90% in RPMI 1640 culture medium (PAA, Vienna) supplemented with 10% (V/V) FCS, 1% (V/V) glutamine and 1% (V/V) streptomycin/penicillin at 37° C. and a 7% CO2 atmosphere (HERA cell incubator, Heraeus, Hanau). Sterile tissue culture dishes 145/20 (greiner bio-one, Frickenhausen) were prepared with 1 ml cell suspension containing 2−3×10^6 cells/ml (suspension medium is equivalent to culture medium described above) and 50 ml supplemented RPMI 1640 medium. After three or four days the carcinoma cells could be harvested for membrane extract preparation. For this purpose, BXPC-3 cells were washed with phosphate-buffered saline (PBS; containing 0.137 M NaCl, 0.027 M KCl, 0.065 M Na2HPO4×2H2O, 0.015 M KH2PO4) and the adherent cells were scraped off the tissue culture dishes. The cell suspension was centrifuged (1500×g for 5 minutes at room temperature). The supernatant was removed and the pellet was washed again with PBS followed by a further centrifugation step (1500×g, 5 minutes at room temperature). Afterwards the supernatant was removed again. A single cell pellet includes carcinoma cells from 10 tissue culture dishes. It was immediately used for membrane extract preparation or stored at −20° C. […]

B1: BARB4: human IgG antibody produced by hybridoma DSMZ Deposit No. DSM ACC2876; heavy chain SEQ ID NOs:1, 3, 5, 7, light chain SEQ ID NO:9 (antibody, V domains shown)
VH: QVQLVESGGGVVQPGRSLRLSCAASGFRFTTHGMHWVRQAPGKGLEWVAVISYNGRNKYYADYVNGRFTISRDDSRDTVFLQMNSLRPEDTAMYYCAKVRGDGYGDYGYFDYWGHGTLVSVSS
VL: QSALTQPRSVSGSPGQSVTISCTGTYNYVSWYQQHPGKAPKLMIFDVSRRSSGVPDRFSGSKSGNTASLTISGLQAEDEADYYCCSYGGTYLYVFGTGTTVTVLGQ
- FACS binding to the cell surface (BxPC-3): binding
- FACS binding to the cell surface (A549): binding
- tumor cell binding (FACS) [1]: binds
- tumor cell binding (FACS) [2]: binds
- binding on Western blots with membrane preparations [3]: binds to a membrane molecule with a relative molecular mass between 70 and 85 kD
